43 substances from patent US10098938B2, “Peptides and combination of peptides for use in immunotherapy against various cancers” (immatics biotechnologies GmbH, priority 2015, dated 2018) can be followed below.

The subject of one assay is CD8+ T cells. Description: In vitro immunogenicity: T-cell priming with aAPCs loaded with peptide/MHC and anti-CD28, pMHC multimer readout. Type of assay: cell-based, human. To be noted: in vitro immunogenicity of HLA class I peptides; for Wells positive [%]: pMHC multimer readout after T-cell priming; for Wells: CD8+ T cells of healthy donors, three stimulation cycles, multimer staining. An excerpt: In order to obtain information regarding the immunogenicity of the TUMAPs of the present invention, the inventors performed investigations using an in vitro T-cell priming assay based on repeated stimulations of CD8+ T cells with artificial antigen presenting cells (aAPCs) loaded with peptide/MHC complexes and anti-CD28 antibody.
In order to perform in vitro stimulations by artificial antigen presenting cells loaded with peptide-MHC complex (pMHC) and anti-CD28 antibody, the inventors first isolated CD8+ T cells from fresh HLA-A*02 leukapheresis products via positive selection using CD8 microbeads (Miltenyi Biotec, Bergisch-Gladbach, Germany) of healthy donors obtained from the University clinics Mannheim, Germany, after informed consent.
PBMCs and isolated CD8+ lymphocytes were incubated in T-cell medium (TCM) until use consisting of RPMI-Glutamax (Invitrogen, Karlsruhe, Germany) supplemented with 10% heat inactivated human AB serum (PAN-Biotech, Aidenbach, Germany), 100 U/ml Penicillin/100 μg/ml Streptomycin (Cambrex, Cologne, Germany), 1 mM sodium pyruvate (CC Pro, Oberdorla, Germany), 20 μg/ml Gentamycin (Cambrex). 2.5 ng/ml IL7 (PromoCell, Heidelberg, Germany) and 10 U/ml IL-2 (Novartis Pharma, Nürnberg, Germany) were also added to the TCM at this step.
Generation of pMHC/anti-CD28 coated beads, T-cell stimulations and readout was performed in a highly defined in vitro system using four different pMHC molecules per stimulation condition and 8 different pMHC molecules per readout condition.
The purified co-stimulatory mouse IgG2a anti human CD28 Ab 9.3 (Jung et al., 1987) was chemically biotinylated using Sulfo-N-hydroxysuccinimidobiotin as recommended by the manufacturer (Perbio, Bonn, Germany). Beads used were 5.6 μm diameter streptavidin coated polystyrene particles (Bangs Laboratories, Illinois, USA).
pMHC used for positive and negative control stimulations were A*0201/MLA-001 (peptide […] (SEQ ID NO. 303) from modified Melan-A/MART-1) and A*0201/DDX5-001 ([…] from DDX5, SEQ ID NO. 304), respectively.
800.000 beads/200 μl were coated in 96-well plates in the presence of 4×12.5 ng different biotin-pMHC, washed and 600 ng biotin anti-CD28 were added subsequently in a volume of 200 μl. Stimulations were initiated in 96-well plates by co-incubating […] CD8+ T cells with 2×10^5 washed coated beads in 200 μl TCM supplemented with 5 ng/ml IL-12 (PromoCell) for 3 days at 37° C. Half of the medium was then exchanged by fresh TCM supplemented with 80 U/ml IL-2 and incubating was continued for 4 days at 37° C. This stimulation cycle was performed for a total of three times. For the pMHC multimer readout using 8 different pMHC molecules per condition, a two-dimensional combinatorial coding approach was used as previously described (Andersen et al., 2012) with minor modifications encompassing coupling to 5 different fluorochromes. Finally, multimeric analyses were performed by staining the cells with Live/dead near IR dye (Invitrogen, Karlsruhe, Germany), CD8-FITC antibody clone SK1 (BD, Heidelberg, Germany) and fluorescent pMHC multimers. For analysis, a BD LSRII SORP cytometer equipped with appropriate lasers and filters was used. Peptide specific cells were calculated as percentage of total CD8+ cells. Evaluation of multimeric analysis was done using the FlowJo software (Tree Star, Oregon, USA). In vitro priming of specific multimer+ CD8+ lymphocytes was detected by comparing to negative control stimulations.

The target of another assay is HLA-A*02 (Homo sapiens, UniProt P04439, D140Y/D185E/D98H/E176V/E277Q/G131W/G231S/I119V/I121R/I166T/I218V/L300P/N151K/N90K/P208A/P217A/Q86G/Q94H/R138H/R169H). Description: MHC binding assay, UV-ligand exchange with β2m ELISA, HLA-A*02. To be noted: binding to HLA-A*02 ranged by peptide exchange yield. The source says:
(§1) Candidate peptides for T cell based therapies according to the present invention were further tested for their MHC binding capacity (affinity). The individual peptide-MHC complexes were produced by UV-ligand exchange, where a UV-sensitive peptide is cleaved upon UV-irradiation, and exchanged with the peptide of interest as analyzed. Only peptide candidates that can effectively bind and stabilize the peptide-receptive MHC molecules prevent dissociation of the MHC complexes. To determine the yield of the exchange reaction, an ELISA was performed based on the detection of the light chain (β2m) of stabilized MHC complexes. The assay was performed as generally described in Rodenko et al. (Rodenko et al., 2006).
(§2) 96 well MAXISorp plates (NUNC) were coated over night with 2 ug/ml streptavidin in PBS at room temperature, washed 4× and blocked for 1 h at 37° C. in 2% BSA containing blocking buffer. Refolded HLA-A*02:01/MLA-001 monomers served as standards, covering the range of 15-500 ng/ml. Peptide-MHC monomers of the UV-exchange reaction were diluted 100 fold in blocking buffer. Samples were incubated for 1 h at 37° C., washed four times, incubated with 2 ug/ml HRP conjugated anti-β2m for 1 h at 37° C., washed again and detected with TMB solution that is stopped with […]. Absorption was measured at 450 nm. Candidate peptides that show a high exchange yield (preferably higher than 50%, most preferred higher than 75%) are generally preferred for a generation and production of antibodies or fragments thereof, and/or T cell receptors or fragments thereof, as they show sufficient avidity to the MHC molecules and prevent dissociation of the MHC complexes.
A general note: An ELISA detects its analyte on a solid surface through an enzyme-linked reagent.

The next assay has as its system HLA-A*24. Description: MHC binding assay, UV-ligand exchange with β2m ELISA, HLA-A*24. Details: species or system human. The note with it: binding to HLA-A*24 ranged by peptide exchange yield.
Description: as §1, §2

Regarding “12 (GLLPLLHRA; listed as Homo sapiens) [compound 12]”, the “Wells positive [%]” value with CD8+ T cells was “++++ (> = 70% = ++++)”. Moreover, the Peptide exchange result with HLA-A*02 is reported as “++++ (> = 75% = ++++)”.
In the case of “120 (VTPVTVSAV; listed as Homo sapiens) [compound 120]”, the Peptide exchange result with HLA-A*02 is reported as “+ (<20% = +)”.
Take “42 (LLDSVSRL; listed as Homo sapiens) [compound 42]”: the Peptide exchange entry with HLA-A*02 is recorded as “+ (<20% = +)”.
Same read-out and setting: as for “82 (FIFDEAEKL; listed as Homo sapiens) [compound 82]”, the entry is “+ (<20% = +)”; as for “153 (FISERVEVV; listed as Homo sapiens) [compound 153]”, “++++ (> = 75% = ++++)”.
In the case of “167 (NYINRILKL; listed as Homo sapiens) [compound 167]”, the “Wells positive [%]” value with CD8+ T cells is recorded as “+ (<20% = +)”. Further, the Peptide exchange entry in the assay with HLA-A*24 is listed as “++++ (> = 75% = ++++)”.
As to “84 (ALCPRIHEV; listed as Homo sapiens) [compound 84]”, the Peptide exchange result with HLA-A*02 is recorded as “++++ (> = 75% = ++++)”.
The same measure, in the same setting: as for “147 (YLMDDTVEI; listed as Homo sapiens) [compound 147]”, the entry is “++++ (> = 75% = ++++)”.
Take “248 (YLDRFLAGV; listed as Homo sapiens) [compound 248]”: the Peptide exchange entry with HLA-A*02 is reported as “++++ (> = 75% = ++++)”.
The same measure, in the same setting: under “126 (QMFQYFITV; listed as Homo sapiens) [compound 126]” stands “++++ (> = 75% = ++++)”; under “95 (GLLGSLFFL; listed as Homo sapiens) [compound 95]”, “++++ (> = 75% = ++++)”.
As to “159 (LYNKGFIYL; listed as Homo sapiens) [compound 159]”, the “Wells positive [%]” value with CD8+ T cells is given as “++++ (> = 70% = ++++)”. For the same substance, in the assay on HLA-A*24, the Peptide exchange entry is given as “++++ (> = 75% = ++++)”.
“3 (KLEENGDLYL; listed as Homo sapiens) [compound 3]”: in the assay with HLA-A*02, the Peptide exchange entry was “++++ (> = 75% = ++++)”.
On to “34 (FLLATEVVTV; listed as Homo sapiens) [compound 34]”, for which the Peptide exchange result in the assay with HLA-A*02 is “++++ (> = 75% = ++++)”.
As to “14 (ILAKDLFEI; listed as Homo sapiens) [compound 14]”, the Peptide exchange entry in the assay with HLA-A*02 is “++++ (> = 75% = ++++)”.
Take “218 (YYKSTSSAF; listed as Homo sapiens) [compound 218]”: in the assay with CD8+ T cells, the “Wells positive [%]” value was “+ (<20% = +)”.
Consider “258 (LLSERFINV; listed as Homo sapiens) [compound 258]”, for which the Peptide exchange entry with HLA-A*02 was “++++ (> = 75% = ++++)”.
Still for that read-out and setting: under “125 (SLADYEHFV; listed as Homo sapiens) [compound 125]” stands “++++ (> = 75% = ++++)”.
Still for that read-out and setting: as for “229 (AILAHLNTV; listed as Homo sapiens) [compound 229]”, the entry is “++++ (> = 75% = ++++)”.
Turning to “35 (FLLPFSTVYL; listed as Homo sapiens) [compound 35]”, the “Wells positive [%]” value with CD8+ T cells is listed as “+ (<20% = +)”.
In the case of “292 (GMMTAILGV; listed as Homo sapiens) [compound 292]”, in the assay with CD8+ T cells, the Wells result is reported as “+ (<20% = +)”.
For the substance “18 (ILLDLTDNRL; listed as Homo sapiens) [compound 18]”, the “Wells positive [%]” value in the assay with CD8+ T cells is recorded as “+ (<20% = +)”.
Same read-out and setting: as for “207 (AYVVFVSTL; listed as Homo sapiens) [compound 207]”, the entry is “+ (<20% = +)”.
As to “165 (DYTTWTALL; listed as Homo sapiens) [compound 165]”, the “Wells positive [%]” value in the assay with CD8+ T cells is given as “+ (<20% = +)”. In the assay on HLA-A*24, the Peptide exchange result was “++++ (> = 75% = ++++)”.
Regarding “141 (FLDKVLVAA; listed as Homo sapiens) [compound 141]”, the “Wells positive [%]” value in the assay on CD8+ T cells is reported as “+ (<20% = +)”.
Regarding “257 (GLYTDPCGV; listed as Homo sapiens) [compound 257]”, the Peptide exchange entry in the assay with HLA-A*02 was “++++ (> = 75% = ++++)”.
On the same count and under the same terms, as for “112 (SLGKFTFDV; listed as Homo sapiens) [compound 112]”, the entry is “++++ (> = 75% = ++++)”.
With “31 (TITETTVEV; listed as Homo sapiens) [compound 31]”, the “Wells positive [%]” value with CD8+ T cells was “+ (<20% = +)”.
In the case of “51 (LLFSRLCGA; listed as Homo sapiens) [compound 51]”, the Peptide exchange result with HLA-A*02 is on record as “++++ (> = 75% = ++++)”.
On to “163 (DYLKGLASF; listed as Homo sapiens) [compound 163]”, for which the “Wells positive [%]” value in the assay on CD8+ T cells is “+ (<20% = +)”. Further, the Peptide exchange result with HLA-A*24 is on record as “++++ (> = 75% = ++++)”.
Regarding “129 (RLQDILWFL; listed as Homo sapiens) [compound 129]”, the Peptide exchange entry with HLA-A*02 is “++++ (> = 75% = ++++)”.
Consider “204 (TYELRYFQI; listed as Homo sapiens) [compound 204]”, for which the “Wells positive [%]” value in the assay on CD8+ T cells was “+ (<20% = +)”. In addition, in the assay with HLA-A*24, the Peptide exchange entry is on record as “++++ (> = 75% = ++++)”.
Turning to “23 (SLFSDEFKV; listed as Homo sapiens) [compound 23]”, the “Wells positive [%]” value in the assay with CD8+ T cells is reported as “++++ (> = 70% = ++++)”.
Take “245 (SLLDLPLSL; listed as Homo sapiens) [compound 245]”: the Peptide exchange result with HLA-A*02 is “++++ (> = 75% = ++++)”.
The same measure, in the same setting: under “16 (YTLDIPVLFGV; listed as Homo sapiens) [compound 16]” stands “++++ (> = 75% = ++++)”.
Regarding “197 (EYSLFPGQVVI; listed as Homo sapiens) [compound 197]”, the “Wells positive [%]” value with CD8+ T cells is reported as “+ (<20% = +)”.
Regarding “298 (RYLEGTSCI; listed as Homo sapiens) [compound 298]”, the Wells entry with CD8+ T cells is “+ (<20% = +)”.
Turning to “92 (GLLFSLRSV; listed as Homo sapiens) [compound 92]”, the Peptide exchange entry in the assay with HLA-A*02 is on record as “++++ (> = 75% = ++++)”.
Still for that read-out and setting: as for “100 (ALLGMIIVGV; listed as Homo sapiens) [compound 100]”, the entry is “+ (<20% = +)”.
Same read-out and setting: under “1 (LLYPEPWSV; listed as Homo sapiens) [compound 1]” stands “++++ (> = 75% = ++++)”; under “133 (ALLPRLHQL; listed as Homo sapiens) [compound 133]”, “++++ (> = 75% = ++++)”.
On to “158 (HYSQELSLLYL; listed as Homo sapiens) [compound 158]”, for which the “Wells positive [%]” value in the assay with CD8+ T cells is “+ (<20% = +)”. Further, the Peptide exchange result in the assay on HLA-A*24 is “++++ (> = 75% = ++++)”.
For the substance “90 (FLQDLEQRL; listed as Homo sapiens) [compound 90]”, the “Wells positive [%]” value in the assay on CD8+ T cells is listed as “+ (<20% = +)”.
